Source: US20230331821A1 (VIR BIOTECHNOLOGY, published 2023)
Where two headings read alike, the source gives them in different places.

Key:
[1] = target: T1, SARS-CoV-2 Spike (S) protein, strain BetaCoV/Wuhan-Hu-1/2019, full length (SARS-CoV-2 Wuhan-Hu-1, UniProt P0DTC2 14-1273)
[2] = target: T2, His-tagged RBD of SARS-CoV-2 (SARS-CoV-2 BetaCoV/Wuhan-Hu-1/2019, UniProt P0DTC2 331-550)
[3] = target: T3, His-tagged RBD of SARS-CoV-1 (SARS-CoV-1, UniProt P59594 306-527)
[4] = target: T1, SARS-CoV-2 Spike (S) protein, strain …; test: cell-based or functional assay
[5] = target: T1, SARS-CoV-2 Spike (S) protein, strain …; test: flow cytometry, ExpiCHO cells expressing SARS-CoV-2 S; % positive cells
[6] = target: SARS-CoV-1 Spike (S) protein, strain SARS, on ExpiCHO cells (SARS-CoV (SARS-CoV-1), strain SARS, UniProt P59594 14-1255); test: flow cytometry, ExpiCHO cells expressing SARS-CoV-1 S; % positive cells
[7] = target: T2, His-tagged RBD of SARS-CoV-2; remark: listed apart in the source
[8] = target: T3, His-tagged RBD of SARS-CoV-1; remark: listed apart in the source
[9] = target: T1, SARS-CoV-2 Spike (S) protein, strain …; test: cell-based or functional assay; remark: listed apart in the source
[10] = target: SARS-CoV-2 RBD (produced in house in Expi-CHO cells; residues 331-550 of spike) (SARS-CoV-2 BetaCoV/Wuhan-Hu-1/2019, UniProt P0DTC2 331-550); test: BLI (Octet), antibody on protein A sensors, RBD in solution, global fit
[11] = target: T4, SARS-CoV-1 RBD (Sino Biological) (SARS-CoV-1, UniProt P59594 306-527); test: as above
[12] = target: T4, SARS-CoV-1 RBD (Sino Biological); test: ELISA, antigen coated on the plate, OD 405 nm
[13] = target: T4, SARS-CoV-1 RBD (Sino Biological); test: ELISA, antigen coated on the plate, OD 405 nm; remark: listed apart in the source

B1: S315 recombinant IgG1 (antibody, V domains shown)
VH: EVQLVESGGGLVQPGGSLRLSCAASGFTFSNYWMTWVRQAPGKGLEWVANIKQDGSEKYYVDSVKGRFTISRDNAKNSLYLQMNSLRAEDTAVYYCARDLWWNDQAHYYGMDVWGQGTTVTVSS
VL: SYELTQPPSVSVSPGQTARITCSGDAFPNQYAYWYQQKPGQAPVMLIYKDSERPSGIPERFFGSSSGTTVTLTIRGVQAEDEADYYCQSADSSGTVFGGGTKLTVL
For B1, the EC50 [1] was 0.343 µg/mL, the Kd [2] was 0.811 nM and the Kd [3] was < 0.001 nM. The “IC50, neutralization of SARS-CoV-2pp on DBT-ACE2 cells” value [4] was 25.1 µg/mL, the “EC50 (read off the curve)” value [5] was ~0.3 µg/mL and the “EC50 (read off the curve)” value [6] was ~0.007 µg/mL.

B2: S304 rIgG1 (antibody, V domains shown)
VH: EVQLVESGGGLVQPGGSLRLSCAASGFTFSSYDMHWVRQTTGKGLEWVSTIGTAGDTYYPDSVKGRFTISREDAKNSLYLQMNSLRAGDTAVYYCARGDSSGYYYYFDYWGQGTLLTVSS
VL: DIQMTQSPSSLSAAVGDRVTITCRASQSIGSYLNWYQQKPGKAPKLLIYAASSLQSGVPSRFSGSGSGTDFTLTISSLQPEDFAIYYCQQSYVSPTYTFGPGTKVDIK
B2 was tested, and the EC50 [1] was 0.142 µg/mL, the Kd [7] was 4.58 nM and the Kd [8] was 0.869 nM. The “IC50, neutralization of SARS-CoV-2pp on DBT-ACE2 cells” value [9] was ~16.9 µg/mL, the Kd [10] was 4.58 nM and the Kd [11] was 0.869 nM. For the same binder, the “EC50 (read off the curve)” value [5] was ~0.1 µg/mL and the “EC50 (read off the curve)” value [6] was ~0.01 µg/mL.

B3: S310-rIgG1-LS (antibody, V domains shown)
VH: QVQLVQSGAELKKPGSSVKVSCKASGGTFNSYSFNWVRQAPGQGLEWLGGIIPVLGTSNYAQKFQGRVAVTADEFTTTAYMELSSLRSEDTAVYYCATRTYDSSGYRPYYYGLDVWGQGTPVTVSS
VL: QSALTQPASVSGSPGQSITISCTGTSSDVGSYNLVSWYQQRPGKAPELMIYEVTKRPSGLSNRFSGSKSGNTASLTISGLQAEDEADYYCCSYAGSDTVIFGGGTKVTVL
B3: no binding (tested: 5 µg/ml) [12].

B4: S306-rIgG1-LS (antibody, V domains shown)
VH: QVQLVQSGAEVKKPGASVKVSCKASTYTFTSFGISWVRQAPGQGLEWMGWITTYSGDTNYAQKFQGRVTMTTDTSTNTAYMELRSLRSDDTAVYYCASDYFDSSGYYHSFDYWGQGTLVTVSS
VL: EIVLTQSPDTLSLSPGERATLSCRASQSVSSYLAWYQQRPGQAPRLLIYDASKRATGIPARFSGSGSGTDFTLTISSLEPEDFAVYYCQQRSNWPPGCSFGQGTKVEIK
B4: no binding (tested: 5 µg/ml) [13].
